Some results are limits rather than exact numbers.

Drawing on patent US20030152568A1, this text covers LD50 (sensitivity of cell lines to the FGF-18-saporin conjugate) for one substance.

For the test, the target named is FGF receptor-3c on human osteosarcoma cell line (ATCC, CRL 1543) (human) (UniProt P22607). As to the kind of experiment: cell-based or functional assay.
UniProt P22607, sequence (P22607 23-806): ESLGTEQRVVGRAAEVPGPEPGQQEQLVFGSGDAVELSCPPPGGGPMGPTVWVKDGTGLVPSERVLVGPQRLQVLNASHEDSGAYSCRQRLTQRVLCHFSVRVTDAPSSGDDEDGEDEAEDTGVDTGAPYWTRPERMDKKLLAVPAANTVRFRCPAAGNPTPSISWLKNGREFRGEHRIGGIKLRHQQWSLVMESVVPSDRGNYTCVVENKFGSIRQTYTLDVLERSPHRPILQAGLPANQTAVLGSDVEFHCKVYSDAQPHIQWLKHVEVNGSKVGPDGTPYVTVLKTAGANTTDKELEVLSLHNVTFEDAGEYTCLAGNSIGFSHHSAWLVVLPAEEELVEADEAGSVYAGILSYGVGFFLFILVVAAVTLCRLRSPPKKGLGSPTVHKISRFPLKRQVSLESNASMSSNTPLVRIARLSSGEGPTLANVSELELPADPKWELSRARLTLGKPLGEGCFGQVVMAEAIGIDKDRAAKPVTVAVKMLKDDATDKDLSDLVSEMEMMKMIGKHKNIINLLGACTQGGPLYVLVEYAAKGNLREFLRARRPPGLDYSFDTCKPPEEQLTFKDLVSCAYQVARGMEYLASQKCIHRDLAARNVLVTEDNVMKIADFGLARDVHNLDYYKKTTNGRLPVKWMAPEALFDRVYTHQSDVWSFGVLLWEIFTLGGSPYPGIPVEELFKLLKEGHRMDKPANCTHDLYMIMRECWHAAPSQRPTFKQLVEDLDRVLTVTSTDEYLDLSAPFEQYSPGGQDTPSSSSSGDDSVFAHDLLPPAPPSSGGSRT

FGF-18-saporin conjugate, sequence (O76093 28-207): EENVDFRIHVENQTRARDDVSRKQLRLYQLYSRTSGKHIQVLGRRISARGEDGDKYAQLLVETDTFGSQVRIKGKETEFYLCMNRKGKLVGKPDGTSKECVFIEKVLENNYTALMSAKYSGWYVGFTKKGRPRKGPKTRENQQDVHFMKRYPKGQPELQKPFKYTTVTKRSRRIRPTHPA

Substance FGF-18-saporin conjugate showed an LD50 (sensitivity of cell lines to the FGF-18-saporin conjugate) below 1 nM.
